According to patent US11969458B2, “Formula of neuregulin preparation” (Zensun (Shanghai) Science & Technology, Co., Ltd., priority 2014, dated 2024):

Experiment: pH-stability profile of rhNRG-1 in pH 3 to 10 buffers and DI-water (RP-HPLC, SDS-PAGE)
Assay type: physicochemical
Conditions: for T90: time to degrade 10% of the initial concentration; for Rate of degradation: zero order, linear regression slope
Protocol: 2.1 Develop a RP-HPLC Method to Determine the Purity of rhNRG-1 Drug Substance.
RhNRG-1, batch 201204001, which contains 1.24 mg/mL rhNRG-1, 20 mM phosphate buffer and 0.5M NaCl, pH 5.5 (“API”) was used for the preparation of standard solution for all HPLC analysis.
In a 15 mL plastic tube, add the API and DI-water or a New Buffer. Mix into a solution containing 0.25 mg/mL rhNRG-1, 10 mM New Buffer, 4 mM phosphate (from the API) and 0.1 M NaCl (from the API).
For 40° C., test by SDS-PAGE after 10 days. Destain I (45% water, 45% methanol, 10% acetic acid, freshly made); 0.1% Coomasic Blue stain; The running gel (12%-15%) serves to separate individual polypeptides into discrete bands.
For 40° C., remove 150 μL and test by HPLC after 28.5, 49 and 77 hr.
For each Cone-vs-time profile, a linear regression analysis was performed and the slope of the regression equation was used to represent the rate of degradation in mg/mL/hr assuming zero order kinetics.
At each pH (3 to 8) and temperature, the estimated degradation rate and T90 (time to degrade 10% of the initial concentration or 0.025 mg/mL) are provided as follow (Table 10): […]

[1] = pH 5.63 (No New Buffer added), 40° C.
[2] = pH 5.63 (No New Buffer added), 60° C.

B1: rhNRG-1: proteins or peptides which consist of amino acid sequence of SEQ ID NO: 2 (protein, listed as Homo sapiens)
chain: SHLVKCAEKEKTFCVNGGECFMVKDLSNPSRYLCKCPNEFTGDRCQNYVMASFYKAEELYQ
T90 at the lower pH relative to the one in its original buffer (lower pH (3.2) vs original buffer (pH 5.5, as is)): about 20 ×
T90 at the lower pH relative to the one at pH 4.2 (lower pH (3.2) vs pH 4.2): about 2 ×
pH of the best stability observed (pH 3 to 8 study, lowest pH): 3.2
stability in solution depending on pH (pH 3 to 10): more stable in acid solution (PH 3.0 to 7.0) than in basic solution (PH 8.0 to 10.0)
% over initial conc. (pH 3.19 (Sodium phosphate), 40° C., 28.5 hr): 97%
% over initial conc. (pH 3.19 (Sodium phosphate), 40° C., 49 hr): 97%
% over initial conc. (pH 3.19 (Sodium phosphate), 40° C., 77 hr): 96%
% over initial conc. (pH 3.19 (Sodium phosphate), 60° C., 7.5 hr): 98%
% over initial conc. (pH 3.19 (Sodium phosphate), 60° C., 24 hr): 93%
% over initial conc. (pH 3.19 (Sodium phosphate), 60° C., 48 hr): 89%
% over initial conc. (pH 3.19 (Sodium phosphate), 60° C., 65 hr): 82%
% over initial conc. (pH 3.19 (Sodium phosphate), 60° C., 77 hr): 72%
Initial Conc (pH 3.19 (Sodium phosphate)): 0.241 mg/mL
T90 (pH 3.19, 40° C.): 10.4 days
Rate of degradation (pH 3.19, 40° C.): 0.0001 mg/mL/h
T90 (pH 3.19, 60° C.): 1.7 days
Rate of degradation (pH 3.19, 60° C.): 0.0006 mg/mL/h
% over initial conc. (pH 4.17 (Sodium acetate), 40° C., 28.5 hr): 97%
% over initial conc. (pH 4.17 (Sodium acetate), 40° C., 49 hr): 97%
% over initial conc. (pH 4.17 (Sodium acetate), 40° C., 77 hr): 93%
% over initial conc. (pH 4.17 (Sodium acetate), 60° C., 7.5 hr): 99%
% over initial conc. (pH 4.17 (Sodium acetate), 60° C., 24 hr): 93%
% over initial conc. (pH 4.17 (Sodium acetate), 60° C., 48 hr): 91%
% over initial conc. (pH 4.17 (Sodium acetate), 60° C., 65 hr): 84%
% over initial conc. (pH 4.17 (Sodium acetate), 60° C., 77 hr): 78%
Initial Conc (pH 4.17 (Sodium acetate)): 0.247 mg/mL
T90 (pH 4.17, 40° C.): 5.2 days
Rate of degradation (pH 4.17, 40° C.): 0.0002 mg/mL/h
T90 (pH 4.17, 60° C.): 1.7 days
Rate of degradation (pH 4.17, 60° C.): 0.0006 mg/mL/h
% over initial conc. (pH 5.08 (Sodium acetate), 40° C., 28.5 hr): 94%
% over initial conc. (pH 5.08 (Sodium acetate), 40° C., 49 hr): 94%
% over initial conc. (pH 5.08 (Sodium acetate), 40° C., 77 hr): 86%
% over initial conc. (pH 5.08 (Sodium acetate), 60° C., 7.5 hr): 98%
% over initial conc. (pH 5.08 (Sodium acetate), 60° C., 24 hr): 92%
% over initial conc. (pH 5.08 (Sodium acetate), 60° C., 48 hr): 93%
% over initial conc. (pH 5.08 (Sodium acetate), 60° C., 65 hr): 82%
% over initial conc. (pH 5.08 (Sodium acetate), 60° C., 77 hr): 82%
Initial Conc (pH 5.08 (Sodium acetate)): 0.242 mg/mL
T90 (pH 5.08, 40° C.): 2.6 days
Rate of degradation (pH 5.08, 40° C.): 0.0004 mg/mL/h
T90 (pH 5.08, 60° C.): 1.7 days
Rate of degradation (pH 5.08, 60° C.): 0.0006 mg/mL/h
% over initial conc. (pH 5.47 (Histidine), 60° C., 7.5 hr): 95%
% over initial conc. (pH 5.47 (Histidine), 60° C., 24 hr): 92%
% over initial conc. (pH 5.47 (Histidine), 60° C., 48 hr): 86%
% over initial conc. (pH 5.47 (Histidine), 60° C., 65 hr): 79%
% over initial conc. (pH 5.47 (Histidine), 60° C., 77 hr): 79%
Initial Conc (pH 5.47 (Histidine)): 0.248 mg/mL
T90 (pH 5.47, 60° C.): 1.5 days
Rate of degradation (pH 5.47, 60° C.): 0.0007 mg/mL/h
% over initial conc. (pH 5.63 (No New Buffer added), 40° C., 28.5 hr): 92%
% over initial conc. (pH 5.63 (No New Buffer added), 40° C., 49 hr): 91%
% over initial conc. (pH 5.63 (No New Buffer added), 40° C., 77 hr): 38%
T90 [1]: 0.5 days
Rate of degradation [1]: 0.0019 mg/mL/h
% over initial conc. (pH 5.63 (No New Buffer added), 60° C., 7.5 hr): 95%
% over initial conc. (pH 5.63 (No New Buffer added), 60° C., 24 hr): 84%
% over initial conc. (pH 5.63 (No New Buffer added), 60° C., 48 hr): 82%
% over initial conc. (pH 5.63 (No New Buffer added), 60° C., 65 hr): 69%
% over initial conc. (pH 5.63 (No New Buffer added), 60° C., 77 hr): 64%
T90 [2]: 1.0 days
Rate of degradation [2]: 0.001 mg/mL/h
Initial Conc (pH 5.63 (No New Buffer added)): 0.251 mg/mL
% over initial conc. (pH 6.02 (Sodium citrate), 40° C., 28.5 hr): 94%
% over initial conc. (pH 6.02 (Sodium citrate), 40° C., 49 hr): 94%
% over initial conc. (pH 6.02 (Sodium citrate), 40° C., 77 hr): 86%
% over initial conc. (pH 6.02 (Sodium citrate), 60° C., 7.5 hr): 95%
% over initial conc. (pH 6.02 (Sodium citrate), 60° C., 24 hr): 88%
% over initial conc. (pH 6.02 (Sodium citrate), 60° C., 48 hr): 85%
% over initial conc. (pH 6.02 (Sodium citrate), 60° C., 65 hr): 72%
% over initial conc. (pH 6.02 (Sodium citrate), 60° C., 77 hr): 72%
Initial Conc (pH 6.02 (Sodium citrate)): 0.251 mg/mL
T90 (pH 6.02, 40° C.): 2.6 days
Rate of degradation (pH 6.02, 40° C.): 0.0004 mg/mL/h
T90 (pH 6.02, 60° C.): 1.2 days
Rate of degradation (pH 6.02, 60° C.): 0.0009 mg/mL/h
% over initial conc. (pH 7.00 (Sodium phosphate), 40° C., 28.5 hr): 92%
% over initial conc. (pH 7.00 (Sodium phosphate), 40° C., 49 hr): 87%
% over initial conc. (pH 7.00 (Sodium phosphate), 40° C., 77 hr): 82%
% over initial conc. (pH 7.00 (Sodium phosphate), 60° C., 7.5 hr): 90%
% over initial conc. (pH 7.00 (Sodium phosphate), 60° C., 24 hr): 76%
% over initial conc. (pH 7.00 (Sodium phosphate), 60° C., 48 hr): 65%
Initial Conc (pH 7.00 (Sodium phosphate)): 0.251 mg/mL
T90 (pH 7.00, 40° C.): 1.7 days
Rate of degradation (pH 7.00, 40° C.): 0.0006 mg/mL/h
T90 (pH 7.00, 60° C.): 0.7 days
Rate of degradation (pH 7.00, 60° C.): 0.0015 mg/mL/h
% over initial conc. (pH 8.07 (Sodium bicarbonate), 40° C., 28.5 hr): 89%
% over initial conc. (pH 8.07 (Sodium bicarbonate), 40° C., 49 hr): 83%
% over initial conc. (pH 8.07 (Sodium bicarbonate), 40° C., 77 hr): 68%
% over initial conc. (pH 8.07 (Sodium bicarbonate), 60° C., 7.5 hr): 68%
% over initial conc. (pH 8.07 (Sodium bicarbonate), 60° C., 24 hr): 4%
Initial Conc (pH 8.07 (Sodium bicarbonate)): 0.253 mg/mL
T90 (pH 8.07, 40° C.): 1.0 days
Rate of degradation (pH 8.07, 40° C.): 0.001 mg/mL/h
T90 (pH 8.07, 60° C.): 0.2 days
Rate of degradation (pH 8.07, 60° C.): 0.0061 mg/mL/h
